Publication PMC10441969, “Small protein Cgl2215 enhances phenolic tolerance by promoting MytA activity in Corynebacterium glutamicum” (Stress Biology, 2022)

Biological target: T1, His6-MytA (C. glutamicum, UniProt P0C1D6 44-657)
T1 sequence (looked up): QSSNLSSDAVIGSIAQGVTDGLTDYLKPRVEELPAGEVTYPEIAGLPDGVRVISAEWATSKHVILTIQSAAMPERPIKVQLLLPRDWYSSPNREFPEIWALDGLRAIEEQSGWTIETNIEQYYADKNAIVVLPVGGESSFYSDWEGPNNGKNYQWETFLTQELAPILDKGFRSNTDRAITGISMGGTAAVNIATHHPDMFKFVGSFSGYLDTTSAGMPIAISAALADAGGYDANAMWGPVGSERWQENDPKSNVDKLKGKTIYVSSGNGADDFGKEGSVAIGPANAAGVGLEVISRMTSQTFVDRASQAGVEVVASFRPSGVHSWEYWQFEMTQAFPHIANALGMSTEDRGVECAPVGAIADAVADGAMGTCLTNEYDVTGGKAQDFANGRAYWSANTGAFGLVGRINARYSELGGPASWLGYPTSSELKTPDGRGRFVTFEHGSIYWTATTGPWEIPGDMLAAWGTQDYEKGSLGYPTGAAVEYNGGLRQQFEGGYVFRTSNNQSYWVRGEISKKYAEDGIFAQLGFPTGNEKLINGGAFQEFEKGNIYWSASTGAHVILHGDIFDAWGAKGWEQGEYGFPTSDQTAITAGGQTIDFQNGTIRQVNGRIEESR
Assay: cell-based or functional assay

B1: GST-Cgl2215 (natural protein, C. glutamicum, UniProt Q8NNI6 1-71, looked up)
chain: MNHKLFGSKQFRKEKEMGLRIRPNEMKVWETFTLERQLEVIINADHLLLFRGEPHGTVSLSDVVASELIGI
- in vitro esterase activity of MytA (release of p-NP from p-NPP; MytA 4.7 μM) with GST-Cgl2215 at a 1:1 ratio of GST-Cgl2215:MytA and higher ratios (further increased): 1.6 fold
